Literature values, collected in publication PMC3433420.
Like-named read-outs stand apart in the source and are kept apart here.

Legend:
Settings in all cases: cited from earlier work
BLK (Homo sapiens) [1] = biological target: BLK (Homo sapiens) (UniProt P51451)
ABL2 (Homo sapiens) [2] = biological target: ABL2 (Homo sapiens) (UniProt P42684)
ABL2 (Homo sapiens) [3] = biological target: ABL2 (Homo sapiens) (UniProt P42684); remark: listed apart in the source
ABL2 (Homo sapiens) [4] = biological target: ABL2 (Homo sapiens) (UniProt P42684); remark: listed apart in the source
ABL2 (Homo sapiens) [5] = biological target: ABL2 (Homo sapiens) (UniProt P42684); remark: listed apart in the source
PIK3R3-NC (Homo sapiens) [6] = biological target: PIK3R3-NC (Homo sapiens) (UniProt Q92569)
ABL1 (Homo sapiens) [7] = biological target: ABL1 (Homo sapiens) (UniProt P00519)
Sequence of ABL1 (Homo sapiens) (P00519 122-222): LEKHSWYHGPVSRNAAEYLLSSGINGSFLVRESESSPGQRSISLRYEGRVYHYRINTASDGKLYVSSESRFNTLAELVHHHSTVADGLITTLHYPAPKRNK

NCK2 (Homo sapiens) [8] = biological target: NCK2 (Homo sapiens) (UniProt O43639)
Sequence of NCK2 (Homo sapiens) (O43639 280-380): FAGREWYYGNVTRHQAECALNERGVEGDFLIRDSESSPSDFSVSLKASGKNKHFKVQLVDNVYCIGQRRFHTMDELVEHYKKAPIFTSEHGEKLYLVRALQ

SHC1-PTB (Homo sapiens) [9] = biological target: SHC1-PTB (Homo sapiens) (UniProt P29353)
Sequence of SHC1-PTB (Homo sapiens) (P29353 483-583): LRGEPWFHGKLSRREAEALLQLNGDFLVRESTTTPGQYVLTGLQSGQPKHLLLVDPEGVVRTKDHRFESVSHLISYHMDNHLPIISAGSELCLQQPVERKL

SHC1-PTB (Homo sapiens) [10] = biological target: SHC1-PTB (Homo sapiens) (UniProt P29353); remark: listed apart in the source
SYK-NC (Homo sapiens) = SYK-NC (Homo sapiens) (UniProt P43405)
SYK-C (Homo sapiens) = SYK-C (Homo sapiens) (UniProt P43405)
GRB7 (Homo sapiens) = GRB7 (Homo sapiens) (UniProt Q14451)
Sequence of GRB7 (Homo sapiens) (Q14451 426-532): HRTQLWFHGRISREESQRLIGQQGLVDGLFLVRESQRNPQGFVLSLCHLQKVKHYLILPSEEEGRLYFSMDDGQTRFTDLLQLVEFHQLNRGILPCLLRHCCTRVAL

PIK3R1-N (Homo sapiens) = PIK3R1-N (Homo sapiens) (UniProt P27986)
Sequence of PIK3R1-N (Homo sapiens) (P27986 328-723): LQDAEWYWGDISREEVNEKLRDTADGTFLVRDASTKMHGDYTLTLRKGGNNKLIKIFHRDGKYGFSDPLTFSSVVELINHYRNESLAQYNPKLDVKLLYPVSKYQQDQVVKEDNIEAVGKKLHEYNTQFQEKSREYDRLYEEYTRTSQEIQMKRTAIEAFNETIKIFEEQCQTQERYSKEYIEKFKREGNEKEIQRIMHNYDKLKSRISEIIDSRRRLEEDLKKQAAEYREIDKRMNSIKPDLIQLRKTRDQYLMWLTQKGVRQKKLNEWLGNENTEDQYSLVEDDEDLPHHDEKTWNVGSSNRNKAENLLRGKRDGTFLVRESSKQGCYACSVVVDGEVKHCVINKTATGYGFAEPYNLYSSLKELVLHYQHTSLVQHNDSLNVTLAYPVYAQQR

BLK (Homo sapiens) [11] = biological target: BLK (Homo sapiens) (UniProt P51451); remark: listed apart in the source
ITK (Homo sapiens) [12] = biological target: ITK (Homo sapiens) (UniProt Q08881)
Sequence of ITK (Homo sapiens) (Q08881 234-343): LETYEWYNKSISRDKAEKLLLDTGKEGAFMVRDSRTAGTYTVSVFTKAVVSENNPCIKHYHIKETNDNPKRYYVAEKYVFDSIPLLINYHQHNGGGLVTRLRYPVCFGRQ

ABL2 (Homo sapiens) [13] = biological target: ABL2 (Homo sapiens) (UniProt P42684); remark: listed apart in the source
PLCG2-NC (Homo sapiens) = PLCG2-NC (Homo sapiens) (UniProt P16885)
Sequence of PLCG2-NC (Homo sapiens) (P16885 527-740): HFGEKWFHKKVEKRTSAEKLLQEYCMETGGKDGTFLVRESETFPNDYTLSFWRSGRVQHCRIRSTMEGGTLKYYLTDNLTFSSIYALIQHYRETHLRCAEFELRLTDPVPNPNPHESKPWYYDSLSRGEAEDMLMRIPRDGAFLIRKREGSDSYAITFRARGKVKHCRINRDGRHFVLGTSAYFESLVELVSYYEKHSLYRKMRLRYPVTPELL

PIK3R3-NC (Homo sapiens) [14] = biological target: PIK3R3-NC (Homo sapiens) (UniProt Q92569); remark: listed apart in the source
RASA1-N (Homo sapiens) [15] = biological target: RASA1-N (Homo sapiens) (UniProt P20936)
Sequence of RASA1-N (Homo sapiens) (P20936 176-446): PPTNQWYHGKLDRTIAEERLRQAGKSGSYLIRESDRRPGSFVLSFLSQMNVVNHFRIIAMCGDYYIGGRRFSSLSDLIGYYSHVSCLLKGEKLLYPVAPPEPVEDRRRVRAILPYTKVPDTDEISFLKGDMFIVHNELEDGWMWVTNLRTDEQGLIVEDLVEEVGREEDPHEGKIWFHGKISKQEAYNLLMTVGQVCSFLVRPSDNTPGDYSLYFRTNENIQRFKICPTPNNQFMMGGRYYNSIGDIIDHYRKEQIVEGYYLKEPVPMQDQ

GRB2 (Homo sapiens) [16] = biological target: GRB2 (Homo sapiens) (UniProt P62993)
Sequence of GRB2 (Homo sapiens) (P62993 55-157): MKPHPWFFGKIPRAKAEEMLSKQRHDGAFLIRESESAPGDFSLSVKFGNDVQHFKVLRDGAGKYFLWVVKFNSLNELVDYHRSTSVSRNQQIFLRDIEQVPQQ

PIK3R1-NC (Homo sapiens) [17] = biological target: PIK3R1-NC (Homo sapiens) (UniProt P27986)
Sequence of PIK3R1-NC (Homo sapiens) (P27986 328-723): as the sequence (P27986 328-723) above

ABL1 (Homo sapiens) [18] = biological target: ABL1 (Homo sapiens) (UniProt P00519); remark: listed apart in the source
NCK2 (Homo sapiens) [19] = biological target: NCK2 (Homo sapiens) (UniProt O43639); remark: listed apart in the source
GRB10 (Homo sapiens) = GRB10 (Homo sapiens) (UniProt Q13322)
Sequence of GRB10 (Homo sapiens) (Q13322 488-579): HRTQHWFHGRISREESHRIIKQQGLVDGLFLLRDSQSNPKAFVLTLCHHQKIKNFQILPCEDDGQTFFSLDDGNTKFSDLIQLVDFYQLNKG

PIK3R3-N (Homo sapiens) [20] = biological target: PIK3R3-N (Homo sapiens) (UniProt Q92569)
SRC (Homo sapiens) = SRC (Homo sapiens) (UniProt P12931)
PIK3R2-NC (Homo sapiens) [21] = biological target: PIK3R2-NC (Homo sapiens) (UniProt O00459)
Sequence of PIK3R2-NC (Homo sapiens) (O00459 325-721): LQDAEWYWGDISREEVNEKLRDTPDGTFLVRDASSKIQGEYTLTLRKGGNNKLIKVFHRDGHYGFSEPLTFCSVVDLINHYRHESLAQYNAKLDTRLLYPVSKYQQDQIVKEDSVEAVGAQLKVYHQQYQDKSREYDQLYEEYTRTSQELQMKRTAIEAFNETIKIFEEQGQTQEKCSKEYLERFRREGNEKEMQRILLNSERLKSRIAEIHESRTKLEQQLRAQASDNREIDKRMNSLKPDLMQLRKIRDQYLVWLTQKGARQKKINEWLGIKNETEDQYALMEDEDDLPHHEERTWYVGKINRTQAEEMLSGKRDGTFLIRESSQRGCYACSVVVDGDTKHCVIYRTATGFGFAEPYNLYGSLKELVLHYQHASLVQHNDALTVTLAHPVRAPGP

VAV2 (Homo sapiens) [22] = biological target: VAV2 (Homo sapiens) (UniProt P52735)
Sequence of VAV2 (Homo sapiens) (P52735 668-772): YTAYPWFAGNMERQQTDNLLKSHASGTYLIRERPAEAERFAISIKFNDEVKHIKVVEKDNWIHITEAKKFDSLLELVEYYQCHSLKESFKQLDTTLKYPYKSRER

YES1 (Homo sapiens) = YES1 (Homo sapiens) (UniProt P07947)
Sequence of YES1 (Homo sapiens) (P07947 153-260): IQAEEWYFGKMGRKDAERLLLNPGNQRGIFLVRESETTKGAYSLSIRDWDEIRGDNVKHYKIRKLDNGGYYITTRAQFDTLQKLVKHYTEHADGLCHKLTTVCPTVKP

PIK3R2-N (Homo sapiens) [23] = biological target: PIK3R2-N (Homo sapiens) (UniProt O00459)
Sequence of PIK3R2-N (Homo sapiens) (O00459 325-721): as the sequence (O00459 325-721) above

ITK (Homo sapiens) [24] = biological target: ITK (Homo sapiens) (UniProt Q08881); remark: listed apart in the source
ABL2 (Homo sapiens) [25] = biological target: ABL2 (Homo sapiens) (UniProt P42684); remark: listed apart in the source
ABL2 (Homo sapiens) [26] = biological target: ABL2 (Homo sapiens) (UniProt P42684); remark: listed apart in the source
PIK3R3-NC (Homo sapiens) [27] = biological target: PIK3R3-NC (Homo sapiens) (UniProt Q92569); remark: listed apart in the source
RASA1-N (Homo sapiens) [28] = biological target: RASA1-N (Homo sapiens) (UniProt P20936); remark: listed apart in the source
ZAP70-NC (Homo sapiens) = ZAP70-NC (Homo sapiens) (UniProt P43403)
Sequence of ZAP70-NC (Homo sapiens) (P43403 5-259): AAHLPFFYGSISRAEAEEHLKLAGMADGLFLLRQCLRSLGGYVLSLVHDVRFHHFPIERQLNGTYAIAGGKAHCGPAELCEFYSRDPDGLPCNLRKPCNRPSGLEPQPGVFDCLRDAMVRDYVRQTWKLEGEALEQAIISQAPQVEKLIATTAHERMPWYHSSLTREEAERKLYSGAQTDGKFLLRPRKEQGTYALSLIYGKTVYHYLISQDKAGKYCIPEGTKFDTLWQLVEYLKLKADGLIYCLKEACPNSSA

GRB2 (Homo sapiens) [29] = biological target: GRB2 (Homo sapiens) (UniProt P62993); remark: listed apart in the source
GRB2 (Homo sapiens) [30] = biological target: GRB2 (Homo sapiens) (UniProt P62993); remark: listed apart in the source
PIK3R1-NC (Homo sapiens) [31] = biological target: PIK3R1-NC (Homo sapiens) (UniProt P27986); remark: listed apart in the source
NCK2 (Homo sapiens) [32] = biological target: NCK2 (Homo sapiens) (UniProt O43639); remark: listed apart in the source
PIK3R3-N (Homo sapiens) [33] = biological target: PIK3R3-N (Homo sapiens) (UniProt Q92569); remark: listed apart in the source
PIK3R2-NC (Homo sapiens) [34] = biological target: PIK3R2-NC (Homo sapiens) (UniProt O00459); remark: listed apart in the source
SHC1-PTB (Homo sapiens) [35] = biological target: SHC1-PTB (Homo sapiens) (UniProt P29353); remark: listed apart in the source
SHC1-PTB (Homo sapiens) [36] = biological target: SHC1-PTB (Homo sapiens) (UniProt P29353); remark: listed apart in the source
VAV2 (Homo sapiens) [37] = biological target: VAV2 (Homo sapiens) (UniProt P52735); remark: listed apart in the source
PIK3R2-N (Homo sapiens) [38] = biological target: PIK3R2-N (Homo sapiens) (UniProt O00459); remark: listed apart in the source

Sequence of ABL2 (Homo sapiens) (P42684 168-268): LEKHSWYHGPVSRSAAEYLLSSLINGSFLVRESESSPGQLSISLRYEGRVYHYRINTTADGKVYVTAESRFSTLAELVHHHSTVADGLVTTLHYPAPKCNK
Sequence of BLK (Homo sapiens) (P51451 119-225): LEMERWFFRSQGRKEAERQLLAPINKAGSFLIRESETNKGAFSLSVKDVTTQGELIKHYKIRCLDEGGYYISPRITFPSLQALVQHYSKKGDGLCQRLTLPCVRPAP

For …pYHAEGGKVd, which apparent Kd (screen) (BLK (Homo sapiens) [1]) is on record?
Its apparent Kd (screen) is 1.71 µM.

And the apparent Kd (screen) (ABL2 (Homo sapiens) [2])?
The apparent Kd (screen) was 1.08 µM.

What about the apparent Kd (screen) (ABL2 (Homo sapiens) [3]) of the same substance?
Its apparent Kd (screen) is 2 µM.

Which results are given for …pYHNASNGPd?
apparent Kd (screen) (ABL2 (Homo sapiens) [4]): 0.035 µM; apparent Kd (screen) (ABL2 (Homo sapiens) [5]): 0.755 µM; apparent Kd (screen) (PIK3R3-NC (Homo sapiens) [6]): 2 µM; apparent Kd (screen) (ABL1 (Homo sapiens) [7]): 1.82 µM; apparent Kd (screen) (NCK2 (Homo sapiens) [8]): 2 µM; apparent Kd (screen) (SHC1-PTB (Homo sapiens) [9]): 0.717 µM; apparent Kd (screen) (SHC1-PTB (Homo sapiens) [10]): 0.277 µM

With …pYINQSVPKd as the substance, how does the apparent Kd (screen) (SYK-NC (Homo sapiens)) read?
The apparent Kd (screen) was 0.908 µM.

And the apparent Kd (screen) (SYK-C (Homo sapiens))?
The apparent Kd (screen) was 1.92 µM.

What about the apparent Kd (screen) (GRB7 (Homo sapiens)) of the same substance?
Its apparent Kd (screen) is 1.99 µM.

What about the apparent Kd (screen) (PIK3R1-N (Homo sapiens)) of the same substance?
The apparent Kd (screen) was 1.07 µM.

What about the apparent Kd (screen) (BLK (Homo sapiens) [11]) of the same substance?
The apparent Kd (screen) was 0.3 µM.

And the apparent Kd (screen) (ITK (Homo sapiens) [12])?
The apparent Kd (screen) was 0.219 µM.

And the apparent Kd (screen) (ABL2 (Homo sapiens) [13])?
Its apparent Kd (screen) is 0.152 µM.

What about the apparent Kd (screen) (PLCG2-NC (Homo sapiens)) of the same substance?
The apparent Kd (screen) was 1.63 µM.

What about the apparent Kd (screen) (PIK3R3-NC (Homo sapiens) [14]) of the same substance?
The apparent Kd (screen) was 1.02 µM.

And the apparent Kd (screen) (RASA1-N (Homo sapiens) [15])?
Its apparent Kd (screen) is 0.18 µM.

And the apparent Kd (screen) (GRB2 (Homo sapiens) [16])?
The apparent Kd (screen) was 0.198 µM.

And the apparent Kd (screen) (PIK3R1-NC (Homo sapiens) [17])?
Its apparent Kd (screen) is 0.67 µM.

And the apparent Kd (screen) (ABL1 (Homo sapiens) [18])?
The apparent Kd (screen) was 0.916 µM.

And the apparent Kd (screen) (NCK2 (Homo sapiens) [19])?
Its apparent Kd (screen) is 1.1 µM.

What about the apparent Kd (screen) (GRB10 (Homo sapiens)) of the same substance?
The apparent Kd (screen) was 1.3 µM.

What about the apparent Kd (screen) (PIK3R3-N (Homo sapiens) [20]) of the same substance?
Its apparent Kd (screen) is 0.507 µM.

What about the apparent Kd (screen) (SRC (Homo sapiens)) of the same substance?
Its apparent Kd (screen) is 1.79 µM.

What about the apparent Kd (screen) (PIK3R2-NC (Homo sapiens) [21]) of the same substance?
The apparent Kd (screen) was 1.41 µM.

What about the apparent Kd (screen) (VAV2 (Homo sapiens) [22]) of the same substance?
The apparent Kd (screen) was 0.542 µM.

And the apparent Kd (screen) (YES1 (Homo sapiens))?
The apparent Kd (screen) was 0.337 µM.

What about the apparent Kd (screen) (PIK3R2-N (Homo sapiens) [23]) of the same substance?
Its apparent Kd (screen) is 0.453 µM.

Which apparent Kd (screen) (ITK (Homo sapiens) [24]) does the source give for …pYLNTVQPTd here?
The apparent Kd (screen) was 1.76 µM.

What about the apparent Kd (screen) (ABL2 (Homo sapiens) [25]) of the same substance?
Its apparent Kd (screen) is 0.12 µM.

And the apparent Kd (screen) (ABL2 (Homo sapiens) [26])?
Its apparent Kd (screen) is 0.085 µM.

What about the apparent Kd (screen) (PIK3R3-NC (Homo sapiens) [27]) of the same substance?
Its apparent Kd (screen) is 1.69 µM.

What about the apparent Kd (screen) (RASA1-N (Homo sapiens) [28]) of the same substance?
The apparent Kd (screen) was 0.388 µM.

And the apparent Kd (screen) (ZAP70-NC (Homo sapiens))?
Its apparent Kd (screen) is 1.14 µM.

What about the apparent Kd (screen) (GRB2 (Homo sapiens) [29]) of the same substance?
Its apparent Kd (screen) is 0.422 µM.

And the apparent Kd (screen) (GRB2 (Homo sapiens) [30])?
The apparent Kd (screen) was 0.724 µM.

And the apparent Kd (screen) (PIK3R1-NC (Homo sapiens) [31])?
Its apparent Kd (screen) is 1.57 µM.

And the apparent Kd (screen) (NCK2 (Homo sapiens) [32])?
Its apparent Kd (screen) is 0.326 µM.

What about the apparent Kd (screen) (PIK3R3-N (Homo sapiens) [33]) of the same substance?
Its apparent Kd (screen) is 0.838 µM.

What about the apparent Kd (screen) (PIK3R2-NC (Homo sapiens) [34]) of the same substance?
The apparent Kd (screen) was 0.857 µM.

And the apparent Kd (screen) (SHC1-PTB (Homo sapiens) [35])?
Its apparent Kd (screen) is 0.173 µM.

What about the apparent Kd (screen) (SHC1-PTB (Homo sapiens) [36]) of the same substance?
The apparent Kd (screen) was 0.133 µM.

And the apparent Kd (screen) (VAV2 (Homo sapiens) [37])?
Its apparent Kd (screen) is 0.373 µM.

What about the apparent Kd (screen) (PIK3R2-N (Homo sapiens) [38]) of the same substance?
The apparent Kd (screen) was 0.763 µM.
